Target: GST-FoxO1-DBD (Mus musculus, UniProt Q9R1E0 157-268)
Experiment: EMSA; 10 mM HEPES pH 7.8, 50 mM KCl, 1 mM EDTA, 5 mM MgCl2, 10% glycerol, 5 mM DTT, 0.4 ug/mL poly(dI-dC), 30 min on ice; 4.6% PAGE in TBE
Details: protein: recombinant; tags: N-terminal GST (pGEX-4T1); label: 32P (alpha-32P dCTP, Klenow fill-in); blunt after fill-in of 5' overhangs

Chain of GST-FoxO1-DBD (Q9R1E0 157-268): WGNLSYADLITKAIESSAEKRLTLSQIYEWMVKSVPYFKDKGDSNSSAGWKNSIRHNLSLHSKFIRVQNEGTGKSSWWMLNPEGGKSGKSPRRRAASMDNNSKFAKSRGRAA

B1: Ass1 FoxO BS1 mut (dsDNA)
DNA 1: GTGTACCCAAGGACACATCTACTTTCTTTCTGATTTTGGATCCTTTGTTGGGTG
DNA 2: CACCCAACAAAGGATCCAAAATCAGAAAGAAAGTAGATGTGTCCTTGGGTACAC
  binding result: no binding

— article PMC13562413, “FoxO transcription factors coordinate the urea cycle and gluconeogenesis by controlling Ass1”
